Measurements as given in the supplement of paper PMC5998384.

Assays:
HeLa Kyoto [1] = experiment: solubility in G1/S (NP-40 vs SDS abundance) (log2 ratio); higher = more soluble; conditions: cell cycle stage: G1/S
HeLa Kyoto [2] = experiment: melting temperature (median over replicates), in situ; higher = more thermally stable
HeLa Kyoto [3] = experiment: solubility change mitosis vs G1/S (difference of NP-40 vs SDS log2 ratios) (log2 ratio difference); higher = more soluble in mitosis
HeLa Kyoto [4] = experiment: thermal stability score vs G1/S (z-score of summed log2 fold changes over temperatures); higher = more thermally stable than in G1/S
[5] = cell cycle stage: early G1 (4.5 h after nocodazole release)
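Throughout, for melting temperature (median over replicates), in situ: HeLa Kyoto cells synchronized by double thymidine or nocodazole block, proteins quantified by TMT10plex mass spectrometry, three independent biological replicates.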
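Throughout, for solubility change mitosis vs G1/S (difference of NP-40 vs SDS log2 ratios): synchronized HeLa Kyoto cells (double thymidine block for G1/S, nocodazole release for mitosis), protein amounts in NP-40 versus SDS lysates quantified by mass spectrometry, three biological replicates.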
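Throughout, for solubility in G1/S (NP-40 vs SDS abundance): HeLa Kyoto cells arrested at G1/S by double thymidine block, proteins quantified by TMT10plex mass spectrometry in mild NP-40 versus SDS extracts, three biological replicates.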
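Throughout, for thermal stability score vs G1/S (z-score of summed log2 fold changes over temperatures): synchronized HeLa Kyoto cells, proteins quantified by TMT10plex mass spectrometry, three biological replicates, mitosis taken 0.5 h after nocodazole release, G1/S directly after double thymidine block.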

Sequence	solubility in G1/S (log2) (HeLa Kyoto [1])	melting temperature (HeLa Kyoto [2]; cell cycle stage: G1/S) [°C]	melting temperature (HeLa Kyoto [2]; cell cycle stage: mitosis) [°C]	solubility change mitosis (log2) (HeLa Kyoto [3])	thermal stability score (HeLa Kyoto [4]; [5])	thermal stability score (HeLa Kyoto [4]; cell cycle stage: mitosis)
MAAAAASHLNLDALREVLECPICMESFTEEQLRPKLLHCGHTICRQCLEKLLASSINGVRCPFCSKITRITSLTQLTDNLTVLKIIDTAGLSEAVGLLMCRSCGRRLPRQFCRSCGLVLCEPCREADHQPPGHCTLPVKEAAEERRRDFGEKLTRLRELMGELQRRKAALEGVSKDLQARYKAVLQEYGHEERRVQDELARSRKFFTGSLAEVEKSNSQVVEEQSYLLNIAEVQAVSRCDYFLAKIKQADVALLEETADEEEPELTASLPRELTLQDVELLKVGHVGPLQIGQAVKKPRTVNVEDSWAMEATASAASTSVTFREMDMSPEEVVASPRASPAKQRGPEAASNIQQCLFLKKMGAKGSTPGMFNLPVSLYVTSQGEVLVADRGNYRIQVFTRKGFLKEIRRSPSGIDSFVLSFLGADLPNLTPLSVAMNCQGLIGVTDSYDNSLKVYTLDGHCVACHRSQLSKPWGITALPSGQFVVTDVEGGKLWCFTVDRGSGVVKYSCLCSAVRPKFVTCDAEGTVYFTQGLGLNLENRQNEHHLEGGFSIGSVGPDGQLGRQISHFFSENEDFRCIAGMCVDARGDLIVADSSRKEILHFPKGGGYSVLIREGLTCPVGIALTPKGQLLVLDCWDHCIKIYSYHLRRYSTP [TRIM32]	-0.286	51.8	52.2	0.0329	0.931	0.623
MAAAAAVEAAAPMGALWGLVHDFVVGQQEGPADQVAADVKSGNYTVLQVVEALGSSLENPEPRTRARAIQLLSQVLLHCHTLLLEKEVVHLILFYENRLKDHHLVIPSVLQGLKALSLCVALPPGLAVSVLKAIFQEVHVQSLPQVDRHTVYNIITNFMRTREEELKSLGADFTFGFIQVMDGEKDPRNLLVAFRIVHDLISRDYSLGPFVEELFEVTSCYFPIDFTPPPNDPHGIQREDLILSLRAVLASTPRFAEFLLPLLIEKVDSEVLSAKLDSLQTLNACCAVYGQKELKDFLPSLWASIRREVFQTASERVEAEGLAALHSLTACLSRSVLRADAEDLLDSFLSNILQDCRHHLCEPDMKLVWPSAKLLQAAAGASARACDSVTSNVLPLLLEQFHKHSQSSQRRTILEMLLGFLKLQQKWSYEDKDQRPLNGFKDQLCSLVFMALTDPSTQLQLVGIRTLTVLGAQPDLLSYEDLELAVGHLYRLSFLKEDSQSCRVAALEASGTLAALYPVAFSSHLVPKLAEELRVGESNLTNGDEPTQCSRHLCCLQALSAVSTHPSIVKETLPLLLQHLWQVNRGNMVAQSSDVIAVCQSLRQMAEKCQQDPESCWYFHQTAIPCLLALAVQASMPEKEPSVLRKVLLEDEVLAAMVSVIGTATTHLSPELAAQSVTHIVPLFLDGNVSFLPENSFPSRFQPFQDGSSGQRRLIALLMAFVCSLPRNVEIPQLNQLMRELLELSCCHSCPFSSTAAAKCFAGLLNKHPAGQQLDEFLQLAVDKVEAGLGSGPCRSQAFTLLLWVTKALVLRYHPLSSCLTARLMGLLSDPELGPAAADGFSLLMSDCTDVLTRAGHAEVRIMFRQRFFTDNVPALVQGFHAAPQDVKPNYLKGLSHVLNRLPKPVLLPELPTLLSLLLEALSCPDCVVQLSTLSCLQPLLLEAPQVMSLHVDTLVTKFLNLSSSPSMAVRIAALQCMHALTRLPTPVLLPYKPQVIRALAKPLDDKKRLVRKEAVSARGEWFLLGSPGS [MMS19]	-0.14	50.3	49.8	-0.141	-0.678	0.247
MAAAAELSLLEKSLGLSKGNKYSAQGERQIPVLQTNNGPSLTGLTTIAAHLVKQANKEYLLGSTAEEKAIVQQWLEYRVTQVDGHSSKNDIHTLLKDLNSYLEDKVYLTGYNFTLADILLYYGLHRFIVDLTVQEKEKYLNVSRWFCHIQHYPGIRQHLSSVVFIKNRLYTNSH [EEF1E1]	0.394	48.6	49.7	0.0967	-0.612	-0.172
MAAAAGPGAALSPRPCDSDPATPGAQSPKDDNEDNSNDGTQPSKRRRMGSGDSSRSCETSSQDLGFSYYPAENLIEYKWPPDETGEYYMLQEQVSEYLGVTSFKRKYPDLERRDLSHKEKLYLRELNVITETQCTLGLTALRSDEVIDLMIKEYPAKHAEYSVILQEKERQRITDHYKEYSQMQQQNTQKVEASKVPEYIKKAAKKAAEFNSNLNRERMEERRAYFDLQTHVIQVPQGKYKVLPTERTKVSSYPVALIPGQFQEYYKRYSPDELRYLPLNTALYEPPLDPELPALDSDGDSDDGEDGRGDEKRKNKGTSDSSSGNVSEGESPPDSQEDSFQGRQKSKDKAATPRKDGPKRSVLSKSVPGYKPKVIPNAICGICLKGKESNKKGKAESLIHCSQCENSGHPSCLDMTMELVSMIKTYPWQCMECKTCIICGQPHHEEEMMFCDMCDRGYHTFCVGLGAIPSGRWICDCCQRAPPTPRKVGRRGKNSKEG [PHF10]	0.128	49.5	49.4	0.132	1.13	2.91
MAAAAKPNNLSLVVHGPGDLRLENYPIPEPGPNEVLLRMHSVGICGSDVHYWEYGRIGNFIVKKPMVLGHEASGTVEKVGSSVKHLKPGDRVAIEPGAPRENDEFCKMGRYNLSPSIFFCATPPDDGNLCRFYKHNAAFCYKLPDNVTFEEGALIEPLSVGIHACRRGGVTLGHKVLVCGAGPIGMVTLLVAKAMGAAQVVVTDLSATRLSKAKEIGADLVLQISKESPQEIARKVEGQLGCKPEVTIECTGAEASIQAGIYATRSGGNLVLVGLGSEMTTVPLLHAAIREVDIKGVFRYCNTWPVAISMLASKSVNVKPLVTHRFPLEKALEAFETFKKGLGLKIMLKCDPSDQNP [SORD]	0.184	58.1	57	-0.109	-2.25	-1.12
MAAAALGSSSGSASPAVAELCQNTPETFLEASKLLLTYADNILRNPNDEKYRSIRIGNTAFSTRLLPVRGAVECLFEMGFEEGETHLIFPKKASVEQLQKIRDLIAIERSSRLDGSNKSHKVKSSQQPAASTQLPTTPSSNPSGLNQHTRNRQGQSSDPPSASTVAADSAILEVLQSNIQHVLVYENPALQEKALACIPVQELKRKSQEKLSRARKLDKGINISDEDFLLLELLHWFKEEFFHWVNNVLCSKCGGQTRSRDRSLLPSDDELKWGAKEVEDHYCDACQFSNRFPRYNNPEKLLETRCGRCGEWANCFTLCCRAVGFEARYVWDYTDHVWTEVYSPSQQRWLHCDACEDVCDKPLLYEIGWGKKLSYVIAFSKDEVVDVTWRYSCKHEEVIARRTKVKEALLRDTINGLNKQRQLFLSENRRKELLQRIIVELVEFISPKTPKPGELGGRISGSVAWRVARGEMGLQRKETLFIPCENEKISKQLHLCYNIVKDRYVRVSNNNQTISGWENGVWKMESIFRKVETDWHMVYLARKEGSSFAYISWKFECGSVGLKVDSISIRTSSQTFQTGTVEWKLRSDTAQVELTGDNSLHSYADFSGATEVILEAELSRGDGDVAWQHTQLFRQSLNDHEENCLEIIIKFSDL [NGLY1]	-0.124	57.5	50.3	-0.0564	-0.157	-0.401
MAAAAMAAAAGGGAGAARSLSRFRGCLAGALLGDCVGSFYEAHDTVDLTSVLRHVQSLEPDPGTPGSERTEALYYTDDTAMARALVQSLLAKEAFDEVDMAHRFAQEYKKDPDRGYGAGVVTVFKKLLNPKCRDVFEPARAQFNGKGSYGNGGAMRVAGISLAYSSVQDVQKFARLSAQLTHASSLGYNGAILQALAVHLALQGESSSEHFLKQLLGHMEDLEGDAQSVLDARELGMEERPYSSRLKKIGELLDQASVTREEVVSELGNGIAAFESVPTAIYCFLRCMEPDPEIPSAFNSLQRTLIYSISLGGDTDTIATMAGAIAGAYYGMDQVPESWQQSCEGYEETDILAQSLHRVFQKS [ADPRHL2]	0.408	53.3	52.5	-0.105	0.365	-0.404
MAAAAPVAADDDERRRRPGAALEDSRSQEGANGEAESGELSRLRAELAGALAEMETMKAVAEVSESTKAEAVAAVQRQCQEEVASLQAILKDSISSYEAQITALKQERQQQQQDCEEKERELGRLKQLLSRAYPLDSLEKQMEKAHEDSEKLREIVLPMEKEIEELKAKLLRAEELIQEIQRRPRHAPSLHGSTELLPLSRDPSPPLEPLEELSGDGGPAAEAFAHNCDDSASISSFSLGGGVGSSSSLPQSRQGLSPEQEETASLVSTGTLVPEGIYLPPPGYQLVPDTQWEQLQTEGRQLQKDLESVSRERDELQEGLRRSNEDCAKQMQVLLAQVQNSEQLLRTLQGTVSQAQERVQLQMAELVTTHKCLHHEVKRLNEENQGLRAEQLPSSAPQGSQQEQGEEESLPSSVPELQQLLCCTRQEARARLQAQEHGAERLRIEIVTLREALEEETVARASLEGQLRVQREETEVLEASLCSLRTEMERVQQEQSKAQLPDLLSEQRAKVLRLQAELETSEQVQRDFVRLSQALQVRLERIRQAETLEQVRSIMDEAPLTDVRDIKDT [RABEP2]	0.504	49	50.6	0.304	-0.553	0.297
MAAADAEAVPARGEPQQDCCVKTELLGEETPMAADEGSAEKQAGEAHMAADGETNGSCENSDASSHANAAKHTQDSARVNPQDGTNTLTRIAENGVSERDSEAAKQNHVTADDFVQTSVIGSNGYILNKPALQAQPLRTTSTLASSLPGHAAKTLPGGAGKGRTPSAFPQTPAAPPATLGEGSADTEDRKLPAPGADVKVHRARKTMPKSVVGLHAASKDPREVREARDHKEPKEEINKNISDFGRQQLLPPFPSLHQSLPQNQCYMATTKSQTACLPFVLAAAVSRKKKRRMGTYSLVPKKKTKVLKQRTVIEMFKSITHSTVGSKGEKDLGASSLHVNGESLEMDSDEDDSEELEEDDGHGAEQAAAFPTEDSRTSKESMSEADRAQKMDGESEEEQESVDTGEEEEGGDESDLSSESSIKKKFLKRKGKTDSPWIKPARKRRRRSRKKPSGALGSESYKSSAGSAEQTAPGDSTGYMEVSLDSLDLRVKGILSSQAEGLANGPDVLETDGLQEVPLCSCRMETPKSREITTLANNQCMATESVDHELGRCTNSVVKYELMRPSNKAPLLVLCEDHRGRMVKHQCCPGCGYFCTAGNFMECQPESSISHRFHKDCASRVNNASYCPHCGEESSKAKEVTIAKADTTSTVTPVPGQEKGSALEGRADTTTGSAAGPPLSEDDKLQGAASHVPEGFDPTGPAGLGRPTPGLSQGPGKETLESALIALDSEKPKKLRFHPKQLYFSARQGELQKVLLMLVDGIDPNFKMEHQNKRSPLHAAAEAGHVDICHMLVQAGANIDTCSEDQRTPLMEAAENNHLEAVKYLIKAGALVDPKDAEGSTCLHLAAKKGHYEVVQYLLSNGQMDVNCQDDGGWTPMIWATEYKHVDLVKLLLSKGSDINIRDNEENICLHWAAFSGCVDIAEILLAAKCDLHAVNIHGDSPLHIAARENRYDCVVLFLSRDSDVTLKNKEGETPLQCASLNSQVWSALQMSKALQDSAPDRPSPVERIVSRDIARGYERIPIPCVNAVDSEPCPSNYKYVSQNCVTSPMNIDRNITHLQYCVCIDDCSSSNCMCGQLSMRCWYDKDGRLLPEFNMAEPPLIFECNHACSCWRNCRNRVVQNGLRARLQLYRTRDMGWGVRSLQDIPPGTFVCEYVGELISDSEADVREEDSYLFDLDNKDGEVYCIDARFYGNVSRFINHHCEPNLVPVRVFMAHQDLRFPRIAFFSTRLIEAGEQLGFDYGERFWDIKGKLFSCRCGSPKCRHSSAALAQRQASAAQEAQEDGLPDTSSAAAADPL [EHMT1]	-0.58	50.2		0.332	1.22	2.18
